Data as given in IntAct's records for PubMed 24480479.

B1: Focal adhesion kinase 1 (Rattus norvegicus (Rat)), O35346 (parent)
chain: MAAAYLDPNLNHTPSSSTKTHLGTGTERSPGAMERVLKVFHYFESSNEPTTWASIIRHGDATDVRGIIQKIVDSHKVKHVACYGFRLSHLRSEEVHWLHVDMGVSSVREKYELAHPPEEWKYELRIRYLPKGFLNQFTEDKPTLNFFYQQVKSDYMLEIADQVDQDIALKLGCLEIRRSYWEMRGNALEKKSNYEVLEKDVGLKRFFPKSLLDSVKAKTLRKLIQQTFRQFANLNREESILKFFEILSPVYRFDKECFKCALGSSWIISVELAIGPEEGISYLTDKGCNPTHLADFNQVQTIQYSNSEDKDRKGMLQLKIAGAPEPLTVTAPSLTIAENMADLIDGYCRLVNGATQSFIIRPQKEGERALPSIPKLANNEKQGMRTHAVSVSETDDYAEIIDEEDTYTMPSTRDYEIQRERIELGRCIGEGQFGDVHQGVYLSPENPALAVAIKTCKNCTSDSVREKFLQEALTMRQFDHPHIVKLIGVITENPVWIIMELCTLGELRSFLQVRKYSLDLASLILYAYQLSTALAYLESKRFVHRDIAARNVLVSSNDCVKLGDFGLSRYMEDSTYYKASKGKLPIKWMAPESINFRRFTSASDVWMFGVCMWEILMHGVKPFQGVKNNDVIGRIENGERLPMPPNCPPTLYSLMTKCWAYDPSRRPRFTELKAQLSTILEEEKVQQEERMRMESRRQATVSWDSGGSDEAPPKPSRPGYPSPRSSEGFYPSPQHMVQTNHYQISGYPGSHGIPAMAGSIYPGQASLLDQTELWNHRPQEMSMWQPSVEDSAALDLRGMGQVLPPHLMEERLIRQQQEMEEDQRWLEKEERFLKPDVRLSRGSIDREDGSFQGPTGNQHIYQPVGKPDPAAPPKKPPRPGAPGHLSNLSSISSPAESYNEGVKPWRLQPQEISPPPTANLDRSNDKVYENVTGLVKAVIEMSSKIQPAPPEEYVPMVKEVGLALRTLLATVDETIPILPASTHREIEMAQKLLNSDLGELISKMKLAQQYVMTSLQQEYKKQMLTAAHALAVDAKNLLDVIDQARLKMLGQTRPH

Variants of: B1
Conditions: with paxi_mouse Pxn

effect of a mutation on the interaction | Variant
disrupting interaction | W266A
